Data on three molecules can be found in article PMC11014265.

Where two headings read alike, the source gives them in different places.

The target of one series is T1, HrpA75-1300 (no APHB) (Escherichia coli, UniProt P43329 75-1300).
T1 sequence: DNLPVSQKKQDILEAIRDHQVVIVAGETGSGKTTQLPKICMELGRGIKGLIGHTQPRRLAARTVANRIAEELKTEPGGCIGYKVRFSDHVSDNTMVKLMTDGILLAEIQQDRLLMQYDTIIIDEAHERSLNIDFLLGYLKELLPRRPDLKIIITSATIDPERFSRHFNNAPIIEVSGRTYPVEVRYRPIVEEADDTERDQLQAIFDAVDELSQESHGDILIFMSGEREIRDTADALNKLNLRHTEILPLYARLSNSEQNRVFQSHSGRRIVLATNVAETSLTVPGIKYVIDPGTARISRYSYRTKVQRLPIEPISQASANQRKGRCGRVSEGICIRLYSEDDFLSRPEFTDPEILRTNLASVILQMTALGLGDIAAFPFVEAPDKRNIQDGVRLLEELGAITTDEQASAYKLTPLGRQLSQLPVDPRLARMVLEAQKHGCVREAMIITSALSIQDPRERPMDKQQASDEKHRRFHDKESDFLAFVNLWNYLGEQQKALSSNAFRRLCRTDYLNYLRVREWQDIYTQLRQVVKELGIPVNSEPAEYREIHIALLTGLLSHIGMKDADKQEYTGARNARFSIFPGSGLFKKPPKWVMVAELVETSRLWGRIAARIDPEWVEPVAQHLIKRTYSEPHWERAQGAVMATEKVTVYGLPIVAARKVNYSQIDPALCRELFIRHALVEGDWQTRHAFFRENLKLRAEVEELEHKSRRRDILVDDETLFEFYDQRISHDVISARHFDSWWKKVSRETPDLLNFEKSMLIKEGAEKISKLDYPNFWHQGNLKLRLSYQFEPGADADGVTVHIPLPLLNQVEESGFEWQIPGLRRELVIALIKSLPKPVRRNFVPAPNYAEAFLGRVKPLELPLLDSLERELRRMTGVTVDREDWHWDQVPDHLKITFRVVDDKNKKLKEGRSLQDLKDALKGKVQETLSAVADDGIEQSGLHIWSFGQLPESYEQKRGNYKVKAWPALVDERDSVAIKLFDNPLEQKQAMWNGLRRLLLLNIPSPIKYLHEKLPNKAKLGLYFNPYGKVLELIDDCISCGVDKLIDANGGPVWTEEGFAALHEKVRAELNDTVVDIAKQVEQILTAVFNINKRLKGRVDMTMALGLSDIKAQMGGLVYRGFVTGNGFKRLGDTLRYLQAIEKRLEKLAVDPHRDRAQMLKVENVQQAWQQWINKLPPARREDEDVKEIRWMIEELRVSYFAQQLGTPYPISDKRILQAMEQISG
As to the kind of experiment: fluorescence anisotropy.

A further series has as its target T2, HrpA1-1300 E49A (Escherichia coli, UniProt P43329 1-1300, E49A).
T2 sequence: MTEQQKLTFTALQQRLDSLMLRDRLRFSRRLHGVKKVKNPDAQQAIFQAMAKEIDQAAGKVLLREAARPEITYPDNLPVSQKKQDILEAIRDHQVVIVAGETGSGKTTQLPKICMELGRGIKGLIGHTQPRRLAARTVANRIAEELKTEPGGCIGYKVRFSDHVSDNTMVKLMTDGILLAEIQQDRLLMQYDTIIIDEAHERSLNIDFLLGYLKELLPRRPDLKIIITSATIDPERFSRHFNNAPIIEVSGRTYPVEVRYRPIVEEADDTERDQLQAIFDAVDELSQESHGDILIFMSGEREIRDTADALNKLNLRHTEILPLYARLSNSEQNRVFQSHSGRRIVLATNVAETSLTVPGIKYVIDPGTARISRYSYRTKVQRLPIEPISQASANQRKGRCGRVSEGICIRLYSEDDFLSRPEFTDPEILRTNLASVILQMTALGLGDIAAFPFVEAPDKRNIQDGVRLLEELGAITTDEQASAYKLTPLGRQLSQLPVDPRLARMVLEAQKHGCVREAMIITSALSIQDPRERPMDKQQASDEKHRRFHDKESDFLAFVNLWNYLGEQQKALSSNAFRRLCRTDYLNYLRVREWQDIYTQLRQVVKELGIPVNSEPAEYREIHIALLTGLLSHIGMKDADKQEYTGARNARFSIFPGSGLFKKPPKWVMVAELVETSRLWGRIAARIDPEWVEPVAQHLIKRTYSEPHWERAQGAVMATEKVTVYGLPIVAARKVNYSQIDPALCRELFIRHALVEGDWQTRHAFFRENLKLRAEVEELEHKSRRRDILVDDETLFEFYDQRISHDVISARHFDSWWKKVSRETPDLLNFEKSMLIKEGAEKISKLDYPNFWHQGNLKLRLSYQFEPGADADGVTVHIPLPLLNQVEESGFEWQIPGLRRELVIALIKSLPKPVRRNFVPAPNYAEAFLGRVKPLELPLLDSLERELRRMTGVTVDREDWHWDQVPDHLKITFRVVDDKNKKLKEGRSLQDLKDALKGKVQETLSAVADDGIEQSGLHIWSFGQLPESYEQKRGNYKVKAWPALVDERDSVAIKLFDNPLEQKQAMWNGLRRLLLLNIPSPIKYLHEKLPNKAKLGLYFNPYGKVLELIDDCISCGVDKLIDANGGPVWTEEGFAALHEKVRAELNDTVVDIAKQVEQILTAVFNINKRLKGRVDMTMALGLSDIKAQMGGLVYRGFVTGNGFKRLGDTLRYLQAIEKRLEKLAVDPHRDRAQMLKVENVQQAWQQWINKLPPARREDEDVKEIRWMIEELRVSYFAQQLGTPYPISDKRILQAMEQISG
As to the kind of experiment: fluorescence anisotropy.

Series [1] addresses T3, HrpA1-630 (Escherichia coli, UniProt P43329 1-630).
T3 sequence: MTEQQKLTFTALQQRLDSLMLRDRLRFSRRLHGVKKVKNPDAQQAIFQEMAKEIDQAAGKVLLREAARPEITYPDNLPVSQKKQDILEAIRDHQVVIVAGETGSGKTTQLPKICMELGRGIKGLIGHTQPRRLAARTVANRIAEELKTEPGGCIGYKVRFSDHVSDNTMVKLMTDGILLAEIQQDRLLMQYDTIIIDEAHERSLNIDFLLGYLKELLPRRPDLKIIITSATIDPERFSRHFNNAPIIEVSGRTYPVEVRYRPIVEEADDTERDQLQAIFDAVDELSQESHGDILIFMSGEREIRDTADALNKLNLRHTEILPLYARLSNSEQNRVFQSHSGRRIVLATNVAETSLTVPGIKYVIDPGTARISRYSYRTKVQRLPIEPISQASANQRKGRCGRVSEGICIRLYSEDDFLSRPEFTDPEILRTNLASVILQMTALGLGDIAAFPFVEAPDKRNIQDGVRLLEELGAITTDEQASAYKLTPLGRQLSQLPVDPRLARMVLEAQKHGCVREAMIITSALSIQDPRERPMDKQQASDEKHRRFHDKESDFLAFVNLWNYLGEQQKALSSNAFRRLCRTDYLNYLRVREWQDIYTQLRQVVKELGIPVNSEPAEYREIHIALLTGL
As to the kind of experiment: crystal structure.

The target of series [2] is T3, HrpA1-630. As to the kind of experiment: crystal structure. This is another data set of the same source.

On to GTGTGTGTGTGT (ssDNA) [D-G-rich], for which the figures for the binding result in the series with HrpA75-1300 (no APHB) and with HrpA1-1300 E49A were “no binding” and “binds”, respectively.

In the case of CCCCCCCCCCC (ssDNA) [D-C11, C2 complex], the binding result with HrpA1-630 [1] was “binds”.

B1: D-C11 i-motif (structured_DNA)
DNA 1: CCCCCCCCCCC
DNA 2: CCCCCCCCCCC
For B1, the binding result with HrpA1-630 [2] is listed as “binds”.
